Experimental data reported in article PMC11667166, “O-glycosylation is essential for cell surface expression of the transcobalamin receptor CD320” (The Journal of Biological Chemistry, 2024).

Molecular target: the molecule itself
Assay: co-IP; CD320-FLAG and CD320-V5 co-expressed in HEK293 cells; immunoprecipitation with anti-FLAG or anti-V5 antibody, western blotting with anti-FLAG or anti-V5 under non-reducing conditions (~350-kDa band)

B1: human CD320 (transcobalamin receptor), wild type, with an N-terminal FLAG or V5 tag (receptor, UniProt Q9NPF0-1 36-282, looked up)
chain: SPLSTPTSAQAAGPSSGSCPPTKFQCRTSGLCVPLTWRCDRDLDCSDGSDEEECRIEPCTQKGQCPPPPGLPCPCTGVSDCSGGTDKKLRNCSRLACLAGELRCTLSDDCIPLTWRCDGHPDCPDSSDELGCGTNEILPEGDATTMGPPVTLESVTSLRNATTMGPPVTLESVPSVGNATSSSAGDQSGSPTAYGVIAAAAVLSASLVTATLLLLSWLRAQERLRPLGLLVAMKESLLLSEQKTSLP
modifications: N-glycans at N126, N195 and N213; terminally sialylated O-glycans (the ~70-kDa proteoform)
notes: CD320 (transcobalamin receptor), human, NCBI NP_057663.1; wild type; type I transmembrane protein with signal peptide, two LDLR repeats, EGF-like module, transmembrane domain and cytoplasmic segment; Two differently tagged copies of the same protein (one with N-terminal FLAG, one with N-terminal V5) were co-expressed; each chain carries only one of the two tags; The ~350-kDa complex is seen only …
  stoichiometry N: ~5
